According to patent US6730828B1, “Isolated nucleic acids encoding a wheat glutathione transferase, plants transformed therewith and methods of use thereof” (Aventis Agriculture Limited, priority 1997, dated 2004):

Assays:
[1] = GST activity toward CDNB; format: biochemical
Description: (§1) The purified isoenzymes were assayed for GST activity toward herbicides using the HPLC-based assays described by Edwards R. and Cole D. J. (Pesticide Biochemistry and Physiology Vol. 54, pp96-104 (1996)) and the results are presented in Table 2. […] These isoenzymes had additional activities as glutathione peroxidases able to reduce linoleic acid hydroperoxide, a major reaction product formed during membrane peroxidation in plants (Williamson and Beverly. J. Cereal Sci. 8, 1988, 155-163).
To confirm that TaGST1 encoded a GST, it was expressed as a fusion protein with beta-galactosidase using the pBluescript plasmid in E. coli strain SOLR. TaGST1 clones were inoculated into LB liquid medium and were grown overnight at 37/C on all orbital shaker in the presence of IPTG. Bacteria were then pelleted by centrifugation, lysed by sonication and assayed for GST activity toward CDNB and analysed by SDS-PAGE and Western blotting using the anti-TaGSTI-I serum. With all six TaGST1 clones, GST activity toward CDNB could be determined in the crude extracts in the range 30-50 nkat/mg crude lysate.
(§2) To assay the recombinant fusion proteins for GST activity, the E. coli were grown in the presence of IPTG and then pelleted by centrifugation. The bacteria were then lysed by sonication and the protein precipitated using 80% ammonium sulphate. After resuspension and desalting, GSTs were purified by affinity chromatography. The WIC 3 fusion protein was purified using sulphobromophthalein-S-glutathione affinity chromatography (Mozer et al. Biochem. 22, 1983, 1068-1072) while the other WIC fusion proteins were purified using glutathione-agarose (Mannervik and Guthenberg. Methods Enzymol. 77 1981, 231-235).The purified enzymes were then assayed for GST activities toward herbicides (Table 3) and GST activities toward non-herbicide substrates and glutathione peroxidase activities toward organic hydroperoxides (Table 4).
A polyclonal antiserum was raised in a rabbit to a mixture of TaGST1-2 and TaGST1-3. When tested against crude extracts from safener-treated wheat shoots the antiserum recognised both the 25 kDa TaGST1 subunit and the 26 kDa safener-inducible TaGST2 and TaGST3 subunits. The antiserum was then used in conjunction with the antiserum raised to TaGST1-1 to immuno screen the cDNA library prepared from fenchlorazole ethyl treated wheat shoots as described in example 1. Duplicate lifts were taken from the plated out library and the first blot screened with the antiserum raised against TaGST1-2 and TaGST1-3. The second blot was screened with the antiserum raised to TaGST1-1. Five plaques were identified from the first blot which were absent from the second blot corresponding to cDNAs encoding TaGST2 or TaGST3 like polypeptides and theses clones were purified and the respective plasmids sequenced. […] The other three clones ICC. ICP and ICV had identical DNA sequences (SEQ ID No. 17) and predicted amino acid sequence (SEQ ID No. 18). GST ICJ was sub-cloned into the pET 11a vector after using PCR to introduce a Nde 1 restriction site into the translation start site, using the primer 5′ AGGTAGTTACATATGGCCGGAGGA 3′ (SEQ ID No. 19) in the amplification. following sub-cloning, the sequence of GST ICJ was re-checked to ensure no PCR induced errors had been introduced. The recombinant GST ICJ was then expressed in E. coli and purified by S-hexylglutathione affinity chromatography. The purified GST ICJ was assayed for activities as a GST (Table 3) and as a glutathione peroxidase (Table 4). […] GST ICV was finally expressed as the respective beta-galactosidase fusion protein using the Bluescript plasmid and assayed for GST activity (Table 3 ) and glutathione peroxidase activity (Table 4) in crude bacterial lysates. […]

[2] = GST activity toward herbicide fluorodifen (HPLC-based assay); format: biochemical
Description: as §1, §2
(§3) A polyclonal antiserum was raised in a rabbit to a mixture of TaGST1-2 and TaGST1-3. When tested against crude extracts from safener-treated wheat shoots the antiserum recognised both the 25 kDa TaGST1 subunit and the 26 kDa safener-inducible TaGST2 and TaGST3 subunits. The antiserum was then used in conjunction with the antiserum raised to TaGST1-1 to immuno screen the cDNA library prepared from fenchlorazole ethyl treated wheat shoots as described in example 1. Duplicate lifts were taken from the plated out library and the first blot screened with the antiserum raised against TaGST1-2 and TaGST1-3. The second blot was screened with the antiserum raised to TaGST1-1. Five plaques were identified from the first blot which were absent from the second blot corresponding to cDNAs encoding TaGST2 or TaGST3 like polypeptides and theses clones were purified and the respective plasmids sequenced. […] The other three clones ICC. ICP and ICV had identical DNA sequences (SEQ ID No. 17) and predicted amino acid sequence (SEQ ID No. 18). GST ICJ was sub-cloned into the pET 11a vector after using PCR to introduce a Nde 1 restriction site into the translation start site, using the primer 5′ AGGTAGTTACATATGGCCGGAGGA 3′ (SEQ ID No. 19) in the amplification. following sub-cloning, the sequence of GST ICJ was re-checked to ensure no PCR induced errors had been introduced. The recombinant GST ICJ was then expressed in E. coli and purified by S-hexylglutathione affinity chromatography. The purified GST ICJ was assayed for activities as a GST (Table 3) and as a glutathione peroxidase (Table 4). […] GST ICV was finally expressed as the respective beta-galactosidase fusion protein using the Bluescript plasmid and assayed for GST activity (Table 3 ) and glutathione peroxidase activity (Table 4) in crude bacterial lysates. The specific activity of GST ICV toward these substrates was then calculated by I) subtracting the low levels of GST and GPOX activity present due the endogenous activities in the E. coli and ii) determining the proportion of protein in the lysate present as recombinant GST ICV from SDS-PAGE analysis, by densitometry analysis of polypeptides stained with Coomassie blue.

[3] = GST activity toward herbicide fenoxaprop-ethyl (HPLC-based assay); format: biochemical
Description: as §1, §2, §3

[4] = GST activity toward herbicide metolachlor (HPLC-based assay); format: biochemical
Description: as §1, §2, §3

[5] = tested on: wheat shoots; test: Enhancement of GST isoenzyme expression in wheat shoots by safener fenchlorazole-ethyl; format: in vivo, Triticum aestivum L. var. Hunter; conditions: for % enhancement by safener: fenchlorazole-ethyl treated (safened) versus unsafened wheat shoots; for Effect of safener fenchlorazole-ethyl on expression: wheat shoots, in words
Description: Wheat seeds (Triticum aestivum L. var. Hunter) were imbibed in a 10 mg/l solution of the herbicide safener fenchlorazole-ethyl and then grown in an environmental growth room with further root-applied watering treatments of 5 mg/l fenchlorazole ethyl applied as required. At 10 days after imbibing, the shoot tissue was harvested and extracted prior to precipitation of the protein with ammonium sulphate (80% saturation). The total protein extract was then applied in the presence of 1 M ammonium sulphate to a phenyl-Sepharose column. The bound GSTs were then recovered, firstly by reducing the ammonium sulphate concentration to 0 M to yield the polar GST fraction, which represented 61% of the recovered activity toward 1-chloro-2,4-dinitrobenzene (CDNB). The remaining 39% of the GST activity was then recovered by adding ethylene glycol (50% v/v) to the running buffer to yield the hydrophobic GST fraction. […] The component polypeptides in the active fractions were then analysed by silver staining after resolution by sodium dodecyl sulphate polyacrylamide gel electrophoresis (SDS-PAGE). It was concluded that in fenchlorazole-ethyl-treated wheat the polar GSTs were composed of 25 kDa and 26 kDa polypeptides, while the hydrophobic fraction contained 25 kDa, 26 kDa and 24 kDa polypeptides. Further analysis by reversed-phase HPLC confirmed the subunit compositions (FIG. 2). Based on the combined analyses by Q-sepharose, HPLC and SDS-PAGE these GST polypeptides were named as described in Table 1, which also contains details of how these subunits associate together to form the active dimers found in plants and the relative abundance of these subunits in extracts from unsafened and fenchlorazole-ethyl treated ([…]) plants.

[6] = Glutathione peroxidase activity toward cumene hydroperoxide; format: biochemical; conditions: recombinant wheat GST, affinity purified; ± standard error (n = 3)
Description: as §2, §3

[7] = GST activity toward benzyl isothiocyanate; format: biochemical; conditions: recombinant wheat GST, affinity purified; ± standard error
Description: as §2

[8] = GST activity toward crotonaldehyde; format: biochemical; conditions: recombinant wheat GST, affinity purified; ± standard error
Description: as §2

[9] = isoenzymes purified from fenchlorazole-ethyl-treated wheat shoots
[10] = recombinant wheat GST expressed in E. coli, affinity purified
[11] = recombinant wheat GST expressed in E. coli, affinity purified, ± standard error

| Molecule | GST activity toward CDNB [1, 9] | GST activity toward fluorodifen [2, 9] [nkat.mg^−1] | GST activity toward fenoxaprop-ethyl [3, 9] [nkat.mg^−1] | GST activity toward metolachlor [4, 9] [nkat.mg^−1] | % enhancement by safener [5] | Effect of safener fenchlorazole-ethyl on expression [5] | GST activity toward CDNB [1, 10] [nkat.mg^−1] | GST activity toward fluorodifen [2, 11] [nkat.mg^−1] | GST activity toward fenoxaprop-ethyl [3, 11] [nkat.mg^−1] | GST activity toward metolachlor [4, 11] [nkat.mg^−1] | Glutathione peroxidase activity toward cumene hydroperoxide [6] | GST activity toward benzyl isothiocyanate [7] [nkat.mg^−1] | GST activity toward crotonaldehyde [8] [nkat.mg^−1] |
| --- | --- | --- | --- | --- | --- | --- | --- | --- | --- | --- | --- | --- | --- |
| TaGST1-2: wheat GST isoenzyme, heterodimer of TaGST1 and 26 kDa TaGST2 subunits (SEQ ID No. 2/SEQ ID No. 16) (protein, heterodimer; Triticum aestivum L.) chain 1: MAGEKGLVLLDFWVSPFGQRVRIALAEKGLPYEYAEEDLMAGKSDRLLRANPVHKKIPVLLHDGRAVNESLIILQYLEEAFPDAPALLPSDPYARAQARFWADYVDKKVYDCGSRLWKLKGEPQAQARAEMLDILKTLDGALGDKPFFGGDKFGFVDAAFAPFTAWFHSYERYGEFSLPEVAPKIAAWAKRCGERESVAKSLYSPDKVYDFIGLLKKKYGIE chain 2: MAGDGELKLLGVWTSPFVIRVRVVLNLKSLPYEYVEESLGSKSALLLGSNPVHQSVPVLLHGGRPVNESQVIVQYIDEVWAGAGPSVLPADPYERATARFWAAYVDDKVGSAWTGMLFSCKTEEERAEAVSRAVAALETLEGAFAECSKGKAFFGGDAIGFVDVVLGGYLGWFGAIDKIIGRRLIDPARTPLLARWEERFRAADAAKGVVPDDADKMLEFLPTVLAWIAGKAK | 1,441 nkat.mg^−1 | 0.38 | 0.61 | 0.25 | Only | only observed following treatment with the safener |  |  |  |  |  |  |  |
| TaGST1-3: wheat GST isoenzyme, heterodimer of TaGST1 and 26 kDa TaGST3 subunits (SEQ ID No. 2/SEQ ID No. 18) (protein, heterodimer; Triticum aestivum L.) chain 1: MAGEKGLVLLDFWVSPFGQRVRIALAEKGLPYEYAEEDLMAGKSDRLLRANPVHKKIPVLLHDGRAVNESLIILQYLEEAFPDAPALLPSDPYARAQARFWADYVDKKVYDCGSRLWKLKGEPQAQARAEMLDILKTLDGALGDKPFFGGDKFGFVDAAFAPFTAWFHSYERYGEFSLPEVAPKIAAWAKRCGERESVAKSLYSPDKVYDFIGLLKKKYGIE chain 2: MAGGEELKLLGWWAPGVSPYVLRAQMALAVKGLSYDYLPEDRWSTSDLLIASNPVYKKVPVLIHNGRPVCESLLILEYLDDAVGLAGNGKPILPADPYSRAVARFWAAYVNDKLFPSCTGILKTTKQEERAGKMEETLSGLRHLEAVMAECSEGEAEAPFFGGDAIGFLDIALGCYLPWFEAAGRLAGLGPIIDPARTPKLAAWAERFSVAEPIKALLPGVDKLEEYITTALYPKWNIAVTGN | 1,700 nkat.mg^−1 | 0.38 | 0.44 | 0.28 | Only | only observed following treatment with the safener |  |  |  |  |  |  |  |
| TaGST1: recombinant wheat GST from TaGST1 cDNA (SEQ ID No. 1, amino acid SEQ ID No. 2) expressed in E. coli (protein, Triticum aestivum L.) MAGEKGLVLLDFWVSPFGQRVRIALAEKGLPYEYAEEDLMAGKSDRLLRANPVHKKIPVLLHDGRAVNESLIILQYLEEAFPDAPALLPSDPYARAQARFWADYVDKKVYDCGSRLWKLKGEPQAQARAEMLDILKTLDGALGDKPFFGGDKFGFVDAAFAPFTAWFHSYERYGEFSLPEVAPKIAAWAKRCGERESVAKSLYSPDKVYDFIGLLKKKYGIE |  |  |  |  |  |  | 1970 | 2.0 ± 0.1 | 0 | 0.127 ± 0.014 | 0.7 ± 0.1 absorbance change at 340 nm.mg^−1 | 11.8 ± 0 | 3.7 ± 0.3 |
| WIC 1: recombinant type I wheat GST, SEQ ID No. 3, amino acid SEQ ID No. 4 (protein, Triticum aestivum L.) MAAPAVKVYGWAMSPFVARALLCLEEAGVEYELVPMSREAGDHRQPDFLARNPFGQVPVLEDGDLTIFESRAVARHVLRKHKPELLGSGSPESAAMVDVWLEVEAHQHQTPAGTIVMQCILTPFLGCQRDQAAIDENAAKLTNLFDVYEARLSASRYLAGEAVSLADLSHFPFMRYFMDTEYASLVEERPHVKAWWEEFKASPAAKRVTEFMPPNFGFGKKAEK |  |  |  |  |  |  | 406.5 | 0.136 ± 0.011 | 0.050 ± 0.010 | 0.315 ± 0.003 | 18.6 ± 0.5 absorbance change at 340 nm.mg^−1 | 18.0 ± 3.75 | 7.1 ± 0.7 |
